The record followed here is PMC8027116 (2021).

Holding throughout (test): activation reporter or marker
Experiment [1] deals with T1, insulin B-chain peptide on HLA-DRA*01:01 / HLA-DRB1*04:01 (human).
T1 peptide: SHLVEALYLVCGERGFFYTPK

The target of experiment [2] is T2, preproinsulin peptide on HLA-DRA*01:01 / HLA-DRB1*03:01 (human).
T2 peptide: QKRGIVEQCCTSICS

In experiment [3] the target is T3, preproinsulin peptide on HLA-DQA1*05:01 / HLA-DQB1*02:02 (human).
T3 peptide: YLVCGERGFFYTPKT

Experiment [4] addresses T4, preproinsulin peptide on HLA-DQA1*05:01 / HLA-DQB1*02:01 (human).
T4 peptide: YLVCGERGFFYTPKT

The target of experiment [5] is T5, preproinsulin peptide on HLA-DRA*01:01 / HLA-DRB1*09:01 (human).
T5 peptide: AEDLQVGQVELGGGP

The target of experiment [6] is T6, preproinsulin peptide on HLA-DRA*01:01 / HLA-DRB1*03:01 (human).
T6 peptide: AEDLQVGQVELGGGP

B1: 23.G8 (TCR)
alpha TRAV39 TRAJ56 CDR3: CAWRTGANSKLTF
beta TRBV24-1 TRBJ2-2 CDR3: CATGLAANTGELFF
With B1, the binding result in experiment [1] is listed as “no recognition”.

B2: 95.A9-1 (TCR)
alpha TRAV9-2 TRAJ18 CDR3: CALRTDRGSTLGRLYF
beta TRBV11-2 TRBJ1-6 CDR3: CASSLQSSYNSPLHF
With B2, in experiment [2], the binding result is given as “no recognition”.

B3: 56.B1 (TCR)
alpha TRAV13-1 TRAJ40 CDR3: CAVLSPSGTYKYIF
beta TRBV7-9 TRBJ1-4 CDR3: CASSLMGNPHEKLFF
For the molecule B3, the binding result in experiment [3] and in experiment [4] was “recognises” in each case.

B4: 55.C10 (TCR)
alpha TRAV26-1 TRAJ26 CDR3: CIVRSHGQNFVF
beta TRBV20-1 TRBJ2-7 CDR3: CSARPGTRNYEQYF
As for B4, the binding result in experiment [5] and in experiment [6] was “no recognition” throughout.
